From the supplement of paper PMC10567573

B1: TRIM29 (parent)
chain: RKCPVHGKTMELFCQTDQTCICYL
B2: TNNI2 (parent)
chain: DWRKNIEEKSGMEGRKKMFESES

Variants of: B1
Assay: protein stability index of a GFP-peptide fusion (GPS, HEK-293T) (PSI 1-6); higher = more stable
Conditions: c terminus: a fixed tail appended
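Note: lentivirally expressed fusions sorted by FACS into six bins by GFP to DsRed ratio, PSI derived from sequencing read proportions per bin multiplied by bin number.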

Variant | protein stability index
G7T | 2.46
G7C | 2.5
G7I | 3.48
G7D | 3.12
G7W | 1.4
G7N | 3.49
G7M | 2.35
G7F | 2.55
G7V | 2.04
G7K | 1.63
G7P | 2.46
G7E | 2.6
G7S | 2.57
G7A | 2.25
G7L | 2.26
G7H | 2.38
G7Q | 3.09
V5N | 4.09
V5P | 2.87
V5Q | 1.59
V5I | 2.79
V5S | 3.1
V5K | 2.3
V5T | 2.46

Variant | protein stability index
V5W | 2.52
V5L | 1.92
V5G | 3.21
V5A | 1.72
V5C | 3.08
V5M | 2.58
V5H | 3.76
V5Y | 2.71
V5D | 3.62
V5R | 2.42
V5E | 1.79
C3G | 2.1
C3K | 1.89
C3R | 2.12
C3L | 2.3
C3T | 3.1
C3F | 2.35
C3V | 1.86
C3W | 2.72
C3Q | 2.64
C3S | 2.54
C3I | 3.19
C3H | 2.27
C3E | 2.52

Variant | protein stability index
C3D | 2.13
C3A | 3.58
C3P | 1.97
C3N | 2.92
C3Y | 1.9
P4Q | 1.95
P4D | 2.63
P4E | 3.3
P4A | 2.54
P4Y | 2.12
P4F | 3.42
P4L | 3.39
P4S | 2.41
P4K | 2.58
P4V | 2.21
P4I | 2.52
P4C | 4.04
P4W | 2.91
P4T | 2.25
P4R | 3.52
P4N | 3.09
R1H | 3
R1G | 3.33
R1T | 2.32

Variant | protein stability index
R1S | 2.19
R1F | 1.95
R1V | 2.98
R1M | 1.95
R1P | 2.66
R1N | 2.84
R1C | 2.39
R1Y | 2.48
R1W | 2.46
R1I | 1.65
R1L | 3.04
R1E | 1.71
R1D | 1.67
R1Q | 1.91
R1K | 2.22
R1A | 2.68
H6P | 1.98
H6A | 2.38
H6F | 2.31
H6V | 2.44
H6D | 3.05
H6W | 1.96
H6L | 2.85
H6R | 4.01

Variant | protein stability index
H6N | 3.27
H6I | 2.37
H6C | 1.62
H6K | 2.29
H6G | 2.4
K2Y | 1.8
K2V | 2.02
K2T | 1.7
K2I | 1.94
K2S | 2.27
K2F | 2.36
K2P | 3.02
K2W | 2.91
K2C | 1.82
K2E | 1.65
K2D | 2.15
K2H | 2.15
K2Q | 2.12
K2A | 2.54
K2G | 2.57
K2M | 2.17
K2N | 2.68
K2R | 1.69
K2L | 2.36

Variants of: B2
Assay: as above
Conditions: c terminus: native

Variant | protein stability index
E8T | 2.17
E8A | 2.2
E8M | 1.5
S21C | 3.19
K9N | 2.58
K9D | 1.73
D1C | 1.75
R15I | 1.71
R15M | 1.51
R15F | 1.62
R15G | 1.76
S10Q | 2.97
E13Q | 2.03
E13Y | 2.15
E7R | 2.8
F19T | 4.8
G14I | 1.6
G14V | 1.08
E20F | 4.56
E20V | 2.79
M18D | 6
M18P | 4.59
M18S | 4.36
M12V | 2.39

Variant | protein stability index
M12E | 2.47
M12N | 2.89
K17F | 2.48
K17Y | 2.6
R3E | 2.48
R3G | 1.61
R3I | 2.19
W2M | 3.08
W2S | 2.69
N5Q | 2.72
N5D | 1.94
E22M | 3.29
E22F | 4.22
G11D | 1.99
G11E | 3.21
G11M | 1.9
G11S | 2.6
K4L | 2.82
K4M | 3.39
K4D | 3.23
K16H | 1.85
K16L | 2.85
K16P | 2.72
